Test results as given in US20260242735A1 (UNIVERSIT T BASEL, published 2026).

B1: Refmab #1 (antibody, V domains shown)
VH: EVQLVQSGAEVKKPGSSVKVSCKASGYTITDSNIHWVRQAPGQSLEWIGYIYPYNGGTDYNQKFKNRATLTVDNPTNTAYMELSSLRSEDTAFYYCVNGNPWLAYWGQGTLVTVSS
VL: DIQLTQSPSTLSASVGDRVTITCRASESLDNYGIRFLTWFQQKPGKAPKLLMYAASNQGSGVPSRFSGSGSGTEFTLTISSLQPDDFATYYCQQTKEVPWSFGQGTKVEVK
notes: In the alanine scan antibodies were used as IgG or Fab; also called hP67.6
B2: Refmab #2 (antibody, V domains shown)
VH: QVQLVQSGAEVKKPGSSVKVSCKASGGTFSDYAISWVRQAPGQGLEWMGRIIPILGVADYAQKFQGRVTITADKSTRTAYMELSSLRSEDTAVYYCARNWADAFDIWGQGTMVTVSS
VL: DIQLTQSPSSLSASVGDRVTITCRASQGISSVLAWYQQKPGKAPKLLIYDASSLESGVPSRFSGSGSGTDFTLTISSLQPEDFATYYCQQFDSSITFGQGTKLEIK
notes: In the alanine scan antibodies were used as IgG or Fab
B3: Refmab #3 (antibody, V domains shown)
VH: QVQLVQSGAEVKKPGSSVKVSCKASGYTFTDYNMHWVRQAPGQGLEWIGYIYPYNGGTGYNQKFKSKATITADESTNTAYMELSSLRSEDTAVYYCARGRPAMDYWGQGTLVTVSS
VL: DIQMTQSPSSLSASVGDRVTITCRASESVDNYGISFMNWFQQKPGKAPKLLIYAASNQGSGVPSRFSGSGSGTDFTLTISSLQPDDFATYYCQQSKEVPWTFGQGTKVEIK
notes: as for B2
B4: Refmab #4 (antibody, V domains shown)
VH: QVQLVQSGAEVKKPGESVKVSCKASGYTFTNYGMNWVKQAPGQGLEWMGWINTYTGEPTYADKFQGRVTMTTDTSTSTAYMEIRNLGGDDTAVYYCARWSWSDGYYVYFDYWGQGTSVTVSS
VL: DIVMTQSPDSLTVSLGERTTINCKSSQSVLDSSTNKNSLAWYQQKPGQPPKLLLSWASTRESGIPDRFSGSGSGTDFTLTIDSPQPEDSATYYCQQSAHFPITFGQGTRLEIK
notes: as for B2
B5: Refmab #1 (antibody, V domains shown)
VH: B1 VH
VL: B1 VL
notes: The alanine scan used IgG or Fab; also called hP67.6
B6: Refmab #2 (antibody, V domains shown)
VH: B2 VH
VL: B2 VL
notes: The alanine scan used IgG or Fab

How the values were obtained:
Assay in all cases: alanine scan, flow cytometry, HEK293-T;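 also: antibody binding to each alanine-substituted CD33 mutant expressed transiently in HEK293-T, read as fluorescence minus background, mean of duplicates, relative to wild-type CD33 set as 100%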
human CD33 P203A = human CD33 P203A (human, UniProt P20138 18-364)
Protocol: (§1) An alanine scan on human CD33 was performed to the determine the residues on CD33 that are involved in binding to the antibodies investigated. […] Briefly, a mutation library of CD33 was created by high-throughput, site-directed mutagenesis. Each residue was individually mutated to alanine, with alanine codons mutated to serine. The mutant library was arrayed in 384-well microplates and transiently transfected into HEK293-T. Following transfection, cells were incubated with the indicated antibodies (IgG or Fab) at concentrations pre-determined using an independent immunofluorescence titration curve on wild type CD33. […] Binding of each antibody to each mutant clone was determined in duplicates. For each point, background fluorescence was subtracted from the raw data, which were then normalized to antibody reactivity with wild type CD33.
(§2) Critical residues for antibody binding (outlined in dark grey) were residues whose mutations led to a binding of the test Abs of less than 20%. Additional secondary residues (outlined in light grey) were identified that led to a binding of the test Abs of between 20 and 40% as compared to the wild type CD33.

human CD33 F216A = human CD33 F216A (human, UniProt P20138 18-364)
Protocol: as §1, §2

human CD33 L197A = human CD33 L197A (human, UniProt P20138 18-364)
Chain of human CD33 L197A (P20138 18-364 L197A limits assumed): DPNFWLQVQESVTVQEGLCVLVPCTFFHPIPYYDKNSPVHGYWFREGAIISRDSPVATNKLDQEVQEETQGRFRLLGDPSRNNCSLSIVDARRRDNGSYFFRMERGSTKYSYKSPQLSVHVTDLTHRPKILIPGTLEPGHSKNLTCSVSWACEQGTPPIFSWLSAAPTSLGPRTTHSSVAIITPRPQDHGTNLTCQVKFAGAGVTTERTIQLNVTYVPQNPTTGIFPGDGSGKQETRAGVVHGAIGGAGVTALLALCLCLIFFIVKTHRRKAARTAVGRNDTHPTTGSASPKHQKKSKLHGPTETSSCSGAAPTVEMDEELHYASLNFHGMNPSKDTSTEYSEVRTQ
Protocol: as §1, §2

human CD33 N209A = human CD33 N209A (human, UniProt P20138 18-364)
Protocol: as §1, §2

human CD33 Q213A = human CD33 Q213A (human, UniProt P20138 18-364)
Chain of human CD33 Q213A (P20138 18-364 Q213A limits assumed): as the sequence (P20138 18-364 L197A limits assumed) above, with A180L, Q196A counted along it
Protocol: as §1, §2

human CD33 G218A = human CD33 G218A (human, UniProt P20138 18-364)
Protocol: as §1, §2

human CD33 C169A = human CD33 C169A (human, UniProt P20138 18-364)
Chain of human CD33 C169A (P20138 18-364 C169A limits assumed): as the sequence (P20138 18-364 L197A limits assumed) above, with C152A, A180L counted along it
Protocol: as §1, §2

human CD33 T185A = human CD33 T185A (human, UniProt P20138 18-364)
Chain of human CD33 T185A (P20138 18-364 T185A limits assumed): as the sequence (P20138 18-364 L197A limits assumed) above, with T168A, A180L counted along it
Protocol: as §1, §2

human CD33 L187A = human CD33 L187A (human, UniProt P20138 18-364)
Chain of human CD33 L187A (P20138 18-364 L187A limits assumed): as the sequence (P20138 18-364 L197A limits assumed) above, with L170A, A180L counted along it
Protocol: as §1, §2

human CD33 H193A = human CD33 H193A (human, UniProt P20138 18-364)
Protocol: as §1, §2

human CD33 T200A = human CD33 T200A (human, UniProt P20138 18-364)
Chain of human CD33 T200A (P20138 18-364 T200A limits assumed): as the sequence (P20138 18-364 L197A limits assumed) above, with A180L, T183A counted along it
Protocol: as §1, §2

human CD33 P235A = human CD33 P235A (human, UniProt P20138 18-364)
Chain of human CD33 P235A (P20138 18-364 P235A limits assumed): as the sequence (P20138 18-364 L197A limits assumed) above, with A180L, P218A counted along it
Protocol: as §1, §2

human CD33 K215A = human CD33 K215A (human, UniProt P20138 18-364)
Chain of human CD33 K215A (P20138 18-364 K215A limits assumed): as the sequence (P20138 18-364 L197A limits assumed) above, with A180L, K198A counted along it
Protocol: as §1, §2

human CD33 A183S = human CD33 A183S (human, UniProt P20138 18-364)
Chain of human CD33 A183S (P20138 18-364 A183S limits assumed): as the sequence (P20138 18-364 L197A limits assumed) above, with A166S, A180L counted along it
Protocol: as §1, §2

human CD33 P201A = human CD33 P201A (human, UniProt P20138 18-364)
Chain of human CD33 P201A (P20138 18-364 P201A limits assumed): as the sequence (P20138 18-364 L197A limits assumed) above, with A180L, P184A counted along it
Protocol: as §1, §2

human CD33 A168S = human CD33 A168S (human, UniProt P20138 18-364)
Chain of human CD33 A168S (P20138 18-364 A168S limits assumed): as the sequence (P20138 18-364 L197A limits assumed) above, with A151S, A180L counted along it
Protocol: as §1, §2

human CD33 G220A = human CD33 G220A (human, UniProt P20138 18-364)
Chain of human CD33 G220A (P20138 18-364 G220A limits assumed): as the sequence (P20138 18-364 L197A limits assumed) above, with A180L, G203A counted along it
Protocol: as §1, §2

human CD33 S178A = human CD33 S178A (human, UniProt P20138 18-364)
Protocol: as §1, §2

human CD33 N230A = human CD33 N230A (human, UniProt P20138 18-364)
Chain of human CD33 N230A (P20138 18-364 N230A limits assumed): as the sequence (P20138 18-364 L197A limits assumed) above, with A180L, N213A counted along it
Protocol: as §1, §2

human CD33 W179A = human CD33 W179A (human, UniProt P20138 18-364)
Chain of human CD33 W179A (P20138 18-364 W179A limits assumed): as the sequence (P20138 18-364 L197A limits assumed) above, with W162A, A180L counted along it
Protocol: as §1, §2

human CD33 I281A = human CD33 I281A (human, UniProt P20138 18-364)
Protocol: as §1, §2

human CD33 A272S = human CD33 A272S (human, UniProt P20138 18-364)
Protocol: as §1, §2

human CD33 F280A = human CD33 F280A (human, UniProt P20138 18-364)
Protocol: as §1, §2

human CD33 L270A = human CD33 L270A (human, UniProt P20138 18-364)
Protocol: as §1, §2

human CD33 L277A = human CD33 L277A (human, UniProt P20138 18-364)
Protocol: as §1, §2

human CD33 L275A = human CD33 L275A (human, UniProt P20138 18-364)
Protocol: as §1, §2

human CD33 D298A = human CD33 D298A (human, UniProt P20138 18-364)
Protocol: as §1, §2

human CD33 Q311A = human CD33 Q311A (human, UniProt P20138 18-364)
Protocol: as §1, §2

human CD33 V267A = human CD33 V267A (human, UniProt P20138 18-364)
Protocol: as §1, §2

human CD33 S314A = human CD33 S314A (human, UniProt P20138 18-364)
Protocol: as §1, §2

human CD33 G264A = human CD33 G264A (human, UniProt P20138 18-364)
Protocol: as §1, §2

human CD33 G260A = human CD33 G260A (human, UniProt P20138 18-364)
Protocol: as §1, §2

human CD33 D246A = human CD33 D246A (human, UniProt P20138 18-364)
Protocol: as §1, §2

human CD33 G263A = human CD33 G263A (human, UniProt P20138 18-364)
Protocol: as §1, §2

human CD33 L273A = human CD33 L273A (human, UniProt P20138 18-364)
Protocol: as §1, §2

human CD33 H310A = human CD33 H310A (human, UniProt P20138 18-364)
Protocol: as §1, §2

Row | Binder | Mean % WT Binding (human CD33 P203A) [%] | Mean % WT Binding (human CD33 F216A) [%] | Mean % WT Binding (human CD33 L197A) [%] | Mean % WT Binding (human CD33 N209A) [%] | Mean % WT Binding (human CD33 Q213A) [%] | Mean % WT Binding (human CD33 G218A) [%] | Mean % WT Binding (human CD33 C169A) [%] | Mean % WT Binding (human CD33 T185A) [%] | Mean % WT Binding (human CD33 L187A) [%] | Mean % WT Binding (human CD33 H193A) [%] | Mean % WT Binding (human CD33 T200A) [%] | Mean % WT Binding (human CD33 P235A) [%] | Mean % WT Binding (human CD33 K215A) [%] | Mean % WT Binding (human CD33 A183S) [%] | Mean % WT Binding (human CD33 P201A) [%] | Mean % WT Binding (human CD33 A168S) [%] | Mean % WT Binding (human CD33 G220A) [%] | Mean % WT Binding (human CD33 S178A) [%] | Mean % WT Binding (human CD33 N230A) [%] | Mean % WT Binding (human CD33 W179A) [%] | other results
1 | B1 | 103 | 87.3 | 95.5 | 92.1 | 95.3 | 79.2 | 75.8 | 92.3 | 92.3 | 99.9 | 85.2 | 81.4 | 84.5 | 85.4 | 85.6 | 88.4 | 104 | 94 | 83.6 | 93.5 | 
2 | B2 | 109 | 101 | 125 | 104 | 115 | 124 | 106 | 118 | 144 | 122 | 111 | 108 | 98.4 | 119 | 110 | 110 | 132 | 113 | 96.4 | 113 | 
3 | B3 | 105 | 152 | 91.4 | 91.7 | 135 | 143 | 115 | 105 | 95.5 | 92 | 82.4 | 120 | 79.8 | 117 | 90.9 | 99.2 | 114 | 112 | 109 | 103 | 
4 | B4 | 112 | 71.6 | 95.3 | 88.1 | 103 | 102 | 69.3 | 98.9 | 108 | 103 | 88.8 | 101 | 96.7 | 103 | 103 | 99.9 | 115 | 101 | 63.5 | 83.1 | 
5 | B5 |  |  |  |  |  |  |  |  |  |  |  |  |  |  |  |  |  |  |  |  | Mean % WT Binding (human CD33 I281A): 85 % WT binding; Mean % WT Binding (human CD33 A272S): 87.6 % WT binding; Mean % WT Binding (human CD33 F280A): 98.4 % WT binding; Mean % WT Binding (human CD33 L270A): 102 % WT binding; Mean % WT Binding (human CD33 L277A): 85.5 % WT binding; Mean % WT Binding (human CD33 L275A): 88.7 % WT binding; Mean % WT Binding (human CD33 D298A): 97.8 % WT binding; Mean % WT Binding (human CD33 Q311A): 90.4 % WT binding; Mean % WT Binding (human CD33 V267A): 88.3 % WT binding; Mean % WT Binding (human CD33 S314A): 96.2 % WT binding; Mean % WT Binding (human CD33 G264A): 95 % WT binding; Mean % WT Binding (human CD33 G260A): 81.9 % WT binding; Mean % WT Binding (human CD33 D246A): 85.2 % WT binding; Mean % WT Binding (human CD33 G263A): 98.9 % WT binding; Mean % WT Binding (human CD33 L273A): 110 % WT binding; Mean % WT Binding (human CD33 H310A): 97.4 % WT binding
6 | B6 |  |  |  |  |  |  |  |  |  |  |  |  |  |  |  |  |  |  |  |  | Mean % WT Binding (human CD33 I281A): 114 % WT binding; Mean % WT Binding (human CD33 A272S): 110 % WT binding; Mean % WT Binding (human CD33 F280A): 120 % WT binding; Mean % WT Binding (human CD33 L270A): 119 % WT binding; Mean % WT Binding (human CD33 L277A): 117 % WT binding; Mean % WT Binding (human CD33 L275A): 115 % WT binding; Mean % WT Binding (human CD33 D298A): 81.5 % WT binding; Mean % WT Binding (human CD33 Q311A): 99.5 % WT binding; Mean % WT Binding (human CD33 V267A): 114 % WT binding; Mean % WT Binding (human CD33 S314A): 95.5 % WT binding; Mean % WT Binding (human CD33 G264A): 105 % WT binding; Mean % WT Binding (human CD33 G260A): 105 % WT binding; Mean % WT Binding (human CD33 D246A): 114 % WT binding; Mean % WT Binding (human CD33 G263A): 102 % WT binding; Mean % WT Binding (human CD33 L273A): 117 % WT binding; Mean % WT Binding (human CD33 H310A): 112 % WT binding
